Columns and labels:
[1] = high-throughput enzyme assay with crude bacterial extract; format: biochemical; settings: relative to wild-type RdpA; for Average quizalofop-P activity: average of replicates
Protocol: The high-throughput bacterial protein expression was achieved by synthesizing a recombinant DNA molecule encoding each engineered protein and cloning this into a bacterial expression vector with a C-terminal histidine tag (His-tag) operably linked to the recombinant DNA molecule. The vectors were used to transform Escherichia coli (E. coli), and bacterial expression of the engineered proteins was induced. Overnight E. coli cultures were grown in 96-well plates and the cultures were centrifuged to pellet the bacteria. The bacterial pellets were lysed by adding 100 ul lysis master mix (10 ml of Bacteria Protein Extraction Reagent (B-PER®) II (Pierce Biotechnology, Rockford, IL; cat. no. 78260); 10 ul Lysozyme (10 ug/ml final; Lysozyme American Bioanalytical, Natick, MA; cat. no. AB011780-00005); and 40 ul Benzonase® Nuclease (100 Units/ml final, Novagen, Darmstadt, Germany; cat no 71206-3)) to each well. The plates were vortexed then incubated for 30 minutes at 4° C. 400 ul of MOPS buffer (pH 6.57) was added to cach well and the debris pelleted by centrifugation. The lysate supernatant was carefully removed and used as the crude bacterial extract for subsequent enzymatic analysis.
The high-throughput herbicide degradation enzyme assay was designed to assay the enzymatic activity of the engineered proteins towards various herbicides using crude bacterial extract. The engineered protein's oxygenase activity (that is, its enzymatic activity) was measured by an end point colorimetric assay utilizing detection of phenol products through measurement of absorbance at 510 nm from 4-aminoantipyrine and potassium ferricyanide. This assay was based on the assay described in Fukomori and Hausinger, Journal of Biological Chemistry (1993) 268(32):24311-24317. Enzyme reactions were assayed in 96-well plates in a total volume of 150ul that contained: 20 mM MOPS pH 6.75, 50-200 uM NH4FeSO4, 50-200 uM sodium ascorbate, 1 mM alpha-ketoglutarate (aKG), 10 ul of E. coli cell lysate containing expressed engineered protein, and substrate (either an AOPP herbicide or phenoxy acid herbicide). […] Absorbance measurements were made on a standard laboratory spectrometer. Assays were scaled as needed to enhance throughput. Standard curves were generated using purified protein or product standards.
Using this high-throughput bacterial protein expression and enzyme assay system, activities of approximately 1200 engineered proteins were measured relative to the activity of a selected wild-type protein, RdpA. In a 96 well plate assay, there were 3 controls (crude bacterial extract without an engineered protein) and 3 positive controls (crude bacterial extract with wild-type protein). The absorbance of the wells was measured and the protein activity was calculated using the following formula:
[formula] where, Activityi is the activity of the sample, Absorbancei is the absorbance of the sample, AbsorbanceWT is the absorbance of the wells containing extract from E. coli expressing the wild-type enzyme, and AbsorbancepET is the absorbance of the wells containing extract from E. coli without an engineered protein. Activity for each unique engineered protein was measured in duplicate and was reported as an average of the two measurements.
Using the information learned from the first assays, protein engineering was then done as described previously to produce additional engineered proteins, which were tested as described in this Example 1. The results of the high-throughput enzyme assay with quizalofop-P as the substrate for five of these additional engineered proteins are provided in Table 2.

transgenic maize plants = experiment: hybrid trait efficacy field trials (F1); format: in vivo; settings: 2× quizalofop-P, six locations
Protocol: Inbred trait efficacy field trials were conducted to assess tolerance to the AOPP herbicides and sensitivity to the cyclohexanediones (CHD) herbicides in an inbred background. R2 inbred plants were generated by selfing a homozygous transgenic R1 plant and collecting seed. R2 inbred plants containing MON-HT55 with or without a CTP or MON-HT51 with a CTP and were evaluated at two field locations. Herbicide treatment was 2× quizalofop-P at 0.16 lb ai/acre applied PRE (after planting but before emergence) followed by quizalofop-P at 0.16 lb ai/acre applied at V4 growth stage followed by quizalofop-P at 0.16 lb ai/acre applied at V8 growth stage. Plots were rated for crop injury 7-10 days after herbicide application on a scale of 0-100 with zero being no injury and 100 being complete crop death. All data were subjected to analysis of variance and means separated at LSD (0.05). […] To test for sensitivity to CHD herbicides, which is desirable for use in volunteer control, plants were treated with a 1× rate of clethodim (0.25 lb ai/acre) at V8 growth stage. Volunteer control using a 1× rate of clethodim was 100% effective for all transgenic plants tested. Hybrid trait efficacy field trials were conducted to assess tolerance to the AOPP herbicides and sensitivity to the cyclohexanediones (CHD) herbicides in a hybrid background. F1 hybrid plants were produced by crossing an R1 inbred plant with a non-transgenic plant and collecting seed. The resulting F1 plants containing MON-HT55 (SEQ ID NO:13) with or without a CTP or MON-HT51 (SEQ ID NO: 3) without a CTP were evaluated at six field locations. The hybrid trait efficacy field trials were conducted at six locations under a range of environmental conditions, including high heat and drought conditions during the field season. This permitted the engineered protein to be evaluated in maize under high temperature and water stress conditions. Initial injury from 2× applications of quizalofop-P were higher than desired (>10% injury) at 7-10 days after application. Plants eventually grew out of most of the injury, with generally less injury from the V8 growth stage application as compared to the V4 growth stage application. Excessive injury was also noted when quizalofop-P was applied very early (for example, at VE-V2 growth stage).

[2] = test system: transgenic soybean plants; experiment: R0 soybean green house 2,4-D spray test; format: in vivo; settings: single copy R0 soy events
Source text: Two engineered proteins were selected for analysis in transgenic soybean. DNA constructs were produced for expressing MON-HT1 (SEQ ID NO:14) and MON-HT2 (SEQ ID NO:18) with codon usage optimized for dicot expression using methods known to those skilled in the art. Enhancers, promoters, leaders, introns, CTPs, and 3′UTRs in various combinations were operably linked to the engineered proteins in these DNA constructs. The DNA constructs were used to transform soybean using Agrobacterium tumifaciens and standard methods known in the art. Regenerated R0 transgenic plantlets were grown in the green house. Approximately 9 weeks after transformation at the 1-2 trifoliate leaf stage, single copy R0 events were identified and sprayed with 2,4-D herbicide at a rate of 0.5× (0.375 lb ae/acre), 2× (1.5 lb ae/acre), or 4× (3.0 lb ae/acre). Approximately 2 weeks after herbicide application, the plants were rated for herbicide injury on a scale of 1 to 3, where 1=little to no injury (<20%), 2=moderate injury (20-50%) and 3=severe injury (>50%).

[3] = CTP No, 2,4-D rate 0.5X, about 2 weeks after application

Molecule	Replicate 1 quizalofop-P activity [1]	Replicate 2 quizalofop-P activity [1]	Replicate 3 quizalofop-P activity [1]	Average quizalofop-P activity [1]	% injury after V4 spray (transgenic maize plants; CTP Yes)	% injury after V8 spray (transgenic maize plants; CTP Yes)	Events with 20-50% injury ([2]; CTP No, 2,4-D rate 0.5X)	Events with injury >50% ([2]; CTP No, 2,4-D rate 0.5X)	Events with <20% injury [2, 3]	Events with 20-50% injury ([2]; CTP No, 2,4-D rate 2X)	Events with <20% injury ([2]; CTP No, 2,4-D rate 2X)	Events with injury >50% ([2]; CTP No, 2,4-D rate 2X)	Events with 20-50% injury ([2]; CTP Yes, 2,4-D rate 2X)	Events with <20% injury ([2]; CTP Yes, 2,4-D rate 2X)	Events with injury >50% ([2]; CTP Yes, 2,4-D rate 2X)	Events with 20-50% injury ([2]; CTP Yes, 2,4-D rate 4X)	Events with <20% injury ([2]; CTP Yes, 2,4-D rate 4X)	Events with injury >50% ([2]; CTP Yes, 2,4-D rate 4X)	% injury after V4 spray (transgenic maize plants; CTP No) [%]	% injury after V8 spray (transgenic maize plants; CTP No) [%]
MON-HT51: engineered oxygenase protein, amino acid sequence SEQ ID NO:1 (protein) MHAALSPLSQRFERIAVQPLTGVLGAEITGVDLREPLSDSTWNEILDAFHTYQVIYFPGQAITNEQHIAFSRRFGPVDPVPLLKSIEGYPEVQMIRREANESGRVIGDDWHTDSSFLDAPPAAVVMRAIDVPEHGGDTGFLSMYTAYDALSDGLKKLISGLNVVHSATRVFGSLYQAQNRRFSNTSVKVMDVADGDRETVHPLVVTHPGSGRKGLYVNQVYCQRIEGMSEKESEPLLSFLFAHATKPEFTCRVRWKKDQVLVWDNLCTMHYAINDYHGQTRILHRTTVGGVRPAR	117.02	124.87	110.17	117.35	51.8%	33.3%														
MON-HT1: engineered oxygenase protein, amino acid sequence SEQ ID NO:14 (protein) MHAALTPLTNKYRFIDVQPLTGVLGAEITGVDLREPLDDSTWNEILDAFHTYQVIYFPGQAITNEQHIAFSRRFGPVDPVPILKSIEGYPEVQMIRREANESSRFIGDDWHTDSTFLDAPPAAVVMRAIEVPEYGGDTGFLSMYSAWETLSPTMQATIEGLNVVHSATKVFGSLYQATNWRFSNTSVKVMDVDAGDRETVHPLVVTHPVTGRRALYCNQVYCQKIQGMTDAESKSLLQFLYEHATKFDFTCRVRWKKDQVLVWDNLCTMHRAVPDYAGKFRYLTRTTVAGDKPSR							10	0	120	30	6	0	35	101	0	6	5	0		
MON-HT2: engineered oxygenase protein, amino acid sequence SEQ ID NO:18 (protein) MHAALTPLTNKYRFIDVQPLTGVLGAEITGVDLREPLDDSTWNEILDAFHTYQVIYFPGQAITNEQHIAFSRRFGPVDPVPLLKSIEGYPEVQMIRREANESSRVIGDDWHSDSTFLDAPPAAVVMRAIEVPEYGGDTGFLSMYSAWETLSPTMQATIEGLNVVHSATKVFGSLYQATNWRFSNTSVKVMDVDAGDRETVHPLVVTHPVTGRRALYCNQVYCQKIQGMTDAESKSLLQFLYEHATKFDFTCRVRWKKDQVLVWDNLCTMHRAAPDYAGKFRYLTRTTVAGDKPSR							19	0	3											
MON-HT55: engineered oxygenase protein, amino acid sequence SEQ ID NO:11 (protein) MHAALSPLSQRFERIAVQPLTGVLGAEITGVDLREPLDDSTWNEILDAFHTYQVIYFPGQAITNEQHIAFSRRFGPVDPVPLLKSIEGYPEVQMIRREANESGRVIGENWHTDSTFLDAPPAAVVMYAKEIPPYGGDTLFTSMYTAWETLSPTMQATIEGLNVVHSATRVFGSLYQAQNRRFSNTSVKVMDVDAGDRETVHPLVVTHPETGRKGLYVNQVYCQRIEGMSEKESEPLLSFLFAHATKPEFTCRVRWQEGDVLVWDNLCTQHYAVPDYAGKFRYLTRTTVGGVRPAR	118.48	99.79		109.13	42.6-48.3%	14.2-38.8%													46.8	78.8
